Assay results published in publication PMC12594171, “DKK3-LRP1 complex and a chemical inhibitor regulate Aβ clearance in models of Alzheimer’s disease” (Science Advances, 2025).

Molecular target: mLRPIV-HA, stably expressed in SH-SY5Y
Experiment: co-IP + ELISA; SH-SY5Y cells stably expressing mLRPIV-HA incubated with Aβ42 and 1 to 200 nM DKK1 or DKK3; mLRPIV-HA precipitated with anti-HA affinity gel; Aβ42 in the eluate by ELISA

Sequence of DKK3-Flag (Q9UBP4 22-350): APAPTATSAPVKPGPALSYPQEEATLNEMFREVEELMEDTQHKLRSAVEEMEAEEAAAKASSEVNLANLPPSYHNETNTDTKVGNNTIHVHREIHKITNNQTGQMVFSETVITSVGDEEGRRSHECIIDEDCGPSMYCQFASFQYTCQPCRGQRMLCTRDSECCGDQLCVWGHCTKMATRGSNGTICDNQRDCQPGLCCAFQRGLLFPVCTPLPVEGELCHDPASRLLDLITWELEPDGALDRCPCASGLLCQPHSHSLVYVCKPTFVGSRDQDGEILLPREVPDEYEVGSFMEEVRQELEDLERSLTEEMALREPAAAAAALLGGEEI

Which percent reduction of Aβ42 binding to mLRPIV at 20 nM DKK3 does the source give for “DKK3-Flag (from UniProt Q9UBP4 22-350) (ligand)” here?
Its percent reduction of Aβ42 binding to mLRPIV at 20 nM DKK3 is 60%.
